Test results taken from the supplement of paper PMC10724198.
± gives the standard deviation of the averaged measurements.

Assays:
Saccharomyces cerevisiae [1] = assay: protein stability index of tFT-peptide fusion (C-terminal peptide) (PSI (0-1 scale)); higher = more stable (slower turnover)
Description: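 MPS profiling in S. cerevisiae of the tFT-X12 degron library: putative degron peptides plus stable controls, 12 aa, fused to the C-terminus of a sfGFP-mCherry timer. Cells are FACS-sorted into 8 mCherry/sfGFP bins and deep-sequenced. PSI runs from 0 (unstable) to 1 (stable). Backgrounds are wild type, das1Δ and doa10Δ at 30 °C, and wild type, das1Δ, cdc34-1 and cdc53-1 at 37 °C; 2-3 technical replicates each.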

Saccharomyces cerevisiae [2] = assay: as above; conditions: genetic background: wild type; temperature: 30 C
[3] = genetic background: cdc34-1, temperature: 37 C
[4] = genetic background: cdc53-1, temperature: 37 C
[5] = genetic background: das1 deletion, temperature: 30 C
[6] = genetic background: das1 deletion, temperature: 37 C
[7] = genetic background: doa10 deletion, temperature: 30 C
[8] = genetic background: wild type, temperature: 30 C
[9] = genetic background: wild type, temperature: 37 C
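Also: PSI is a weighted mean of sequencing reads over stability bins, variants kept only with over 10 reads, mCherry proximal and sfGFP distal, peptide attached via GGGS linker.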

## HDRLRGVFWRVP
Saccharomyces cerevisiae [1]; [3]
  protein stability index: 0.669 ± 0.066
Saccharomyces cerevisiae [1]; [4]
  protein stability index: 0.739 ± 0.01
Saccharomyces cerevisiae [1]; [5]
  protein stability index: 0.655 ± 0.038
Saccharomyces cerevisiae [1]; [6]
  protein stability index: 0.74321 ± 0.00071
Saccharomyces cerevisiae [1]; [7]
  protein stability index: 0.263 ± 0.015
Saccharomyces cerevisiae [1]; [8]
  protein stability index: 0.308 ± 0.032
Saccharomyces cerevisiae [1]; [9]
  protein stability index: 0.5752 ± 0.0019
Saccharomyces cerevisiae [2]
  protein stability index: 0.439 ± 0.014

## HGVRLHTVWVGG
Saccharomyces cerevisiae [1]; [3]
  protein stability index: 0.55 ± 0.029
Saccharomyces cerevisiae [1]; [4]
  protein stability index: 0.559 ± 0.026
Saccharomyces cerevisiae [1]; [5]
  protein stability index: 0.413 ± 0.011
Saccharomyces cerevisiae [1]; [6]
  protein stability index: 0.597 ± 0.0065
Saccharomyces cerevisiae [1]; [7]
  protein stability index: 0.347 ± 0.0076
Saccharomyces cerevisiae [1]; [8]
  protein stability index: 0.4 ± 0.033
Saccharomyces cerevisiae [1]; [9]
  protein stability index: 0.5437 ± 0.005
Saccharomyces cerevisiae [2]
  protein stability index: 0.4918 ± 0.0038

## HLKKKLKIRLIN
Saccharomyces cerevisiae [1]; [3]
  protein stability index: 0.488 ± 0.16
Saccharomyces cerevisiae [1]; [4]
  protein stability index: 0.685 ± 0.02
Saccharomyces cerevisiae [1]; [5]
  protein stability index: 0.645 ± 0.011
Saccharomyces cerevisiae [1]; [6]
  protein stability index: 0.698 ± 0.036
Saccharomyces cerevisiae [1]; [7]
  protein stability index: 0.108 ± 0.01
Saccharomyces cerevisiae [1]; [8]
  protein stability index: 0.116 ± 0.02
Saccharomyces cerevisiae [1]; [9]
  protein stability index: 0.171 ± 0.018
Saccharomyces cerevisiae [2]
  protein stability index: 0.238 ± 0.031

## HSRALLPYLSYH
Saccharomyces cerevisiae [1]; [3]
  protein stability index: 0.684 ± 0.04
Saccharomyces cerevisiae [1]; [4]
  protein stability index: 0.753 ± 0.016
Saccharomyces cerevisiae [1]; [5]
  protein stability index: 0.651 ± 0.021
Saccharomyces cerevisiae [1]; [6]
  protein stability index: 0.7732 ± 0.007
Saccharomyces cerevisiae [1]; [7]
  protein stability index: 0.408 ± 0.013
Saccharomyces cerevisiae [1]; [8]
  protein stability index: 0.388 ± 0.021
Saccharomyces cerevisiae [1]; [9]
  protein stability index: 0.558 ± 0.012
Saccharomyces cerevisiae [2]
  protein stability index: 0.518 ± 0.029

## HTYSFRLLFIFL
Saccharomyces cerevisiae [1]; [3]
  protein stability index: 0.378 ± 0.031
Saccharomyces cerevisiae [1]; [4]
  protein stability index: 0.456 ± 0.016
Saccharomyces cerevisiae [1]; [5]
  protein stability index: 0.328 ± 0.035
Saccharomyces cerevisiae [1]; [6]
  protein stability index: 0.4762 ± 0.0044
Saccharomyces cerevisiae [1]; [7]
  protein stability index: 0.381 ± 0.013
Saccharomyces cerevisiae [1]; [8]
  protein stability index: 0.321 ± 0.022
Saccharomyces cerevisiae [1]; [9]
  protein stability index: 0.45677 ± 0.00022
Saccharomyces cerevisiae [2]
  protein stability index: 0.388 ± 0.05

## HVPPVFQASLSP
Saccharomyces cerevisiae [1]; [3]
  protein stability index: 0.675 ± 0.072
Saccharomyces cerevisiae [1]; [4]
  protein stability index: 0.7368 ± 0.0055
Saccharomyces cerevisiae [1]; [5]
  protein stability index: 0.662 ± 0.014
Saccharomyces cerevisiae [1]; [6]
  protein stability index: 0.743 ± 0.015
Saccharomyces cerevisiae [1]; [7]
  protein stability index: 0.662 ± 0.011
Saccharomyces cerevisiae [1]; [8]
  protein stability index: 0.667 ± 0.017
Saccharomyces cerevisiae [1]; [9]
  protein stability index: 0.7131 ± 0.0057
Saccharomyces cerevisiae [2]
  protein stability index: 0.747 ± 0.037

## ICFFQGVVVLFR
Saccharomyces cerevisiae [1]; [3]
  protein stability index: 0.353 ± 0.033
Saccharomyces cerevisiae [1]; [4]
  protein stability index: 0.403 ± 0.005
Saccharomyces cerevisiae [1]; [5]
  protein stability index: 0.312 ± 0.026
Saccharomyces cerevisiae [1]; [6]
  protein stability index: 0.48 ± 0.014
Saccharomyces cerevisiae [1]; [7]
  protein stability index: 0.3653 ± 0.0027
Saccharomyces cerevisiae [1]; [8]
  protein stability index: 0.303 ± 0.044
Saccharomyces cerevisiae [1]; [9]
  protein stability index: 0.4521 ± 0.0013
Saccharomyces cerevisiae [2]
  protein stability index: 0.407 ± 0.0077

## IFFVLVFFPGFF
Saccharomyces cerevisiae [1]; [3]
  protein stability index: 0.483 ± 0.036
Saccharomyces cerevisiae [1]; [4]
  protein stability index: 0.541 ± 0.022
Saccharomyces cerevisiae [1]; [5]
  protein stability index: 0.366 ± 0.035
Saccharomyces cerevisiae [1]; [6]
  protein stability index: 0.548 ± 0.014
Saccharomyces cerevisiae [1]; [7]
  protein stability index: 0.359 ± 0.023
Saccharomyces cerevisiae [1]; [8]
  protein stability index: 0.374 ± 0.0071
Saccharomyces cerevisiae [1]; [9]
  protein stability index: 0.506 ± 0.012
Saccharomyces cerevisiae [2]
  protein stability index: 0.443 ± 0.06

## IFHWLYLLIALI
Saccharomyces cerevisiae [1]; [3]
  protein stability index: 0.459 ± 0.025
Saccharomyces cerevisiae [1]; [4]
  protein stability index: 0.497 ± 0.015
Saccharomyces cerevisiae [1]; [5]
  protein stability index: 0.436 ± 0.027
Saccharomyces cerevisiae [1]; [6]
  protein stability index: 0.524 ± 0.0054
Saccharomyces cerevisiae [1]; [7]
  protein stability index: 0.2701 ± 0.0025
Saccharomyces cerevisiae [1]; [8]
  protein stability index: 0.254 ± 0.029
Saccharomyces cerevisiae [1]; [9]
  protein stability index: 0.312 ± 0.014
Saccharomyces cerevisiae [2]
  protein stability index: 0.309 ± 0.014

## IFLKFGLLRSLL
Saccharomyces cerevisiae [1]; [3]
  protein stability index: 0.9386 ± 0.006
Saccharomyces cerevisiae [1]; [4]
  protein stability index: 0.8936 ± 0.0072
Saccharomyces cerevisiae [1]; [5]
  protein stability index: 0.744 ± 0.012
Saccharomyces cerevisiae [1]; [6]
  protein stability index: 0.85 ± 0.031
Saccharomyces cerevisiae [1]; [7]
  protein stability index: 0.6161 ± 0.0027
Saccharomyces cerevisiae [1]; [8]
  protein stability index: 0.628 ± 0.046
Saccharomyces cerevisiae [1]; [9]
  protein stability index: 0.792 ± 0.053
Saccharomyces cerevisiae [2]
  protein stability index: 0.488 ± 0.026

## IGMVSELLLFYP
Saccharomyces cerevisiae [1]; [3]
  protein stability index: 0.721 ± 0.047
Saccharomyces cerevisiae [1]; [4]
  protein stability index: 0.7374 ± 0.0073
Saccharomyces cerevisiae [1]; [5]
  protein stability index: 0.671 ± 0.022
Saccharomyces cerevisiae [1]; [6]
  protein stability index: 0.7676 ± 0.0068
Saccharomyces cerevisiae [1]; [7]
  protein stability index: 0.63 ± 0.0085
Saccharomyces cerevisiae [1]; [8]
  protein stability index: 0.667 ± 0.045
Saccharomyces cerevisiae [1]; [9]
  protein stability index: 0.73 ± 0.008
Saccharomyces cerevisiae [2]
  protein stability index: 0.72 ± 0.017

## IGSFYVLSFICQ
Saccharomyces cerevisiae [1]; [3]
  protein stability index: 0.593 ± 0.043
Saccharomyces cerevisiae [1]; [4]
  protein stability index: 0.61 ± 0.018
Saccharomyces cerevisiae [1]; [5]
  protein stability index: 0.454 ± 0.021
Saccharomyces cerevisiae [1]; [6]
  protein stability index: 0.626 ± 0.019
Saccharomyces cerevisiae [1]; [7]
  protein stability index: 0.438 ± 0.024
Saccharomyces cerevisiae [1]; [8]
  protein stability index: 0.458 ± 0.043
Saccharomyces cerevisiae [1]; [9]
  protein stability index: 0.592 ± 0.014
Saccharomyces cerevisiae [2]
  protein stability index: 0.475 ± 0.02

## IHTFSVVVVVAA
Saccharomyces cerevisiae [1]; [3]
  protein stability index: 0.0536 ± 0.037
Saccharomyces cerevisiae [1]; [4]
  protein stability index: 0.0437 ± 0.026
Saccharomyces cerevisiae [1]; [5]
  protein stability index: 0.128 ± 0.029
Saccharomyces cerevisiae [1]; [6]
  protein stability index: 0.135 ± 0.0088
Saccharomyces cerevisiae [1]; [7]
  protein stability index: 0.0749 ± 0.0091
Saccharomyces cerevisiae [1]; [8]
  protein stability index: 0.114 ± 0.031
Saccharomyces cerevisiae [1]; [9]
  protein stability index: 0.128 ± 0.03
Saccharomyces cerevisiae [2]
  protein stability index: 0.163 ± 0.022

## IIFACFYGVFLM
Saccharomyces cerevisiae [1]; [3]
  protein stability index: 0.0485 ± 0.025
Saccharomyces cerevisiae [1]; [4]
  protein stability index: 0.0619 ± 0.03
Saccharomyces cerevisiae [1]; [5]
  protein stability index: 0.141 ± 0.019
Saccharomyces cerevisiae [1]; [6]
  protein stability index: 0.169 ± 0.024
Saccharomyces cerevisiae [1]; [7]
  protein stability index: 0.282 ± 0.052
Saccharomyces cerevisiae [1]; [8]
  protein stability index: 0.0949 ± 0.036
Saccharomyces cerevisiae [1]; [9]
  protein stability index: 0.109 ± 0.0083
Saccharomyces cerevisiae [2]
  protein stability index: 0.187 ± 0.0052

## ILDRRPRTFALV
Saccharomyces cerevisiae [1]; [3]
  protein stability index: 0.572 ± 0.017
Saccharomyces cerevisiae [1]; [4]
  protein stability index: 0.644 ± 0.018
Saccharomyces cerevisiae [1]; [5]
  protein stability index: 0.633 ± 0.02
Saccharomyces cerevisiae [1]; [6]
  protein stability index: 0.692 ± 0.013
Saccharomyces cerevisiae [1]; [7]
  protein stability index: 0.0946 ± 0.015
Saccharomyces cerevisiae [1]; [8]
  protein stability index: 0.113 ± 0.011
Saccharomyces cerevisiae [1]; [9]
  protein stability index: 0.149 ± 0.008
Saccharomyces cerevisiae [2]
  protein stability index: 0.186 ± 0.0083

## IMGGLRHRIEVY
Saccharomyces cerevisiae [1]; [3]
  protein stability index: 0.366 ± 0.038
Saccharomyces cerevisiae [1]; [4]
  protein stability index: 0.403 ± 0.048
Saccharomyces cerevisiae [1]; [5]
  protein stability index: 0.273 ± 0.028
Saccharomyces cerevisiae [1]; [6]
  protein stability index: 0.477 ± 0.012
Saccharomyces cerevisiae [1]; [7]
  protein stability index: 0.23 ± 0.0031
Saccharomyces cerevisiae [1]; [8]
  protein stability index: 0.268 ± 0.034
Saccharomyces cerevisiae [1]; [9]
  protein stability index: 0.437 ± 0.0067
Saccharomyces cerevisiae [2]
  protein stability index: 0.352 ± 0.016

## IRSLRPFLLPLF
Saccharomyces cerevisiae [1]; [3]
  protein stability index: 0.645 ± 0.016
Saccharomyces cerevisiae [1]; [4]
  protein stability index: 0.731 ± 0.018
Saccharomyces cerevisiae [1]; [5]
  protein stability index: 0.643 ± 0.022
Saccharomyces cerevisiae [1]; [6]
  protein stability index: 0.7184 ± 0.0066
Saccharomyces cerevisiae [1]; [7]
  protein stability index: 0.283 ± 0.004
Saccharomyces cerevisiae [1]; [8]
  protein stability index: 0.306 ± 0.03
Saccharomyces cerevisiae [1]; [9]
  protein stability index: 0.543 ± 0.0084
Saccharomyces cerevisiae [2]
  protein stability index: 0.4088 ± 0.004

## IRVFSFLLFGCF
Saccharomyces cerevisiae [1]; [3]
  protein stability index: 0.465 ± 0.027
Saccharomyces cerevisiae [1]; [4]
  protein stability index: 0.503 ± 0.007
Saccharomyces cerevisiae [1]; [5]
  protein stability index: 0.373 ± 0.033
Saccharomyces cerevisiae [1]; [6]
  protein stability index: 0.546 ± 0.03
Saccharomyces cerevisiae [1]; [7]
  protein stability index: 0.358 ± 0.012
Saccharomyces cerevisiae [1]; [8]
  protein stability index: 0.364 ± 0.027
Saccharomyces cerevisiae [1]; [9]
  protein stability index: 0.488 ± 0.02
Saccharomyces cerevisiae [2]
  protein stability index: 0.44 ± 0.056

## ISFQFFVCLCAR
Saccharomyces cerevisiae [1]; [3]
  protein stability index: 0.13 ± 0.0054
Saccharomyces cerevisiae [1]; [4]
  protein stability index: 0.181 ± 0.0063
Saccharomyces cerevisiae [1]; [5]
  protein stability index: 0.159 ± 0.022
Saccharomyces cerevisiae [1]; [6]
  protein stability index: 0.289 ± 0.0036
Saccharomyces cerevisiae [1]; [7]
  protein stability index: 0.145 ± 0.005
Saccharomyces cerevisiae [1]; [8]
  protein stability index: 0.161 ± 0.018
Saccharomyces cerevisiae [1]; [9]
  protein stability index: 0.253 ± 0.0092
Saccharomyces cerevisiae [2]
  protein stability index: 0.234 ± 0.019
